Consider one substance from US20230149465A1.

This experiment has as its target human IFNγ (human) (UniProt P01579). The experiment in a line: cell-based or functional assay.
Sequence of UniProt P01579 (P01579 24-166 limits assumed): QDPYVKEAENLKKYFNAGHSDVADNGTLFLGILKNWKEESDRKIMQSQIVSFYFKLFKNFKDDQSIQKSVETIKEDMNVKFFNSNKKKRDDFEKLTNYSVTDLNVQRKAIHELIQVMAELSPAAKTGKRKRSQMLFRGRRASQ

In the case of “Amg-HL, anti-IFNγ scFv from AMG811 (heavy chain variable region to light chain variable region)”, the inhibition of IFNγ signaling at dilution 0.5 of supernatant, HEK-Blue IFNγ reporter cells turned out to be 80%.
